Reference: article PMC8576529, “Handling Several Sugars at a Time: a Case Study of Xyloglucan Utilization by Ruminiclostridium cellulolyticum” (mBio, 2021)
Like-named read-outs stand apart in the source and are kept apart here. One block for each molecule: values may come before it.

Key:
β-Glucosidase Glu3A = biological target: T1, β-Glucosidase Glu3A; experiment: pNPβGlu hydrolysis, A400; type: biochemical, Ruminiclostridium cellulolyticum; details: competitive; substrate p-nitrophenyl-β-D-glucoside, 50 mM phosphate pH 7.0, 37°C; read-out: Mean enzyme concn (mM) ± SD^a / β-Glucosidase (Glu3A)
T1 construct: cytosolic enzyme, purified as formerly reported
Text: pNPβGlu hydrolysis, A400 on β-Glucosidase Glu3A

β-Galactosidase Gal42A = biological target: T2, β-Galactosidase Gal42A; experiment: pNPβGal hydrolysis, A400; type: biochemical, Ruminiclostridium cellulolyticum; details: substrate p-nitrophenyl-β-D-galactoside, 50 mM phosphate pH 7.0, 37°C, read-out: Mean enzyme concn (mM) ± SD^a / β-Galactosidase Gal42A
T2 construct: cytosolic enzyme, purified as formerly reported
Text: pNPβGal hydrolysis, A400 on β-Galactosidase Gal42A

α-Xylosidase Xyl31A = biological target: T3, α-Xylosidase Xyl31A (Ruminiclostridium cellulolyticum, UniProt B8I9A6); experiment: isoprimeverose hydrolysis, HPAEC-PAD; type: biochemical; details: competitive; substrate isoprimeverose 0.5 to 8 mM, 50 mM phosphate pH 6.0, 37°C; read-out: Mean enzyme concn (mM) ± SD^a / α-Xylosidase (Xyl31A)
T3 construct: gene Ccel_1004; cytosolic enzyme, purified as formerly reported
Text: isoprimeverose hydrolysis, HPAEC-PAD on α-Xylosidase Xyl31A

[1] = biological target: T4, Cellobiose phosphorylase CbpA (Ruminiclostridium cellulolyticum, UniProt B8I421); experiment: cellobiose phosphorolysis, HPAEC-PAD; type: biochemical; details: competitive; cellobiose 0.05 to 10 mM varied, 50 mM phosphate, pH 7.0, 37°C; read-out: Inhibitor
T4 construct: gene Ccel_2109; C-terminal 6xHis tag, produced in E. coli, purified to homogeneity
T4 sequence (B8I421 1-811): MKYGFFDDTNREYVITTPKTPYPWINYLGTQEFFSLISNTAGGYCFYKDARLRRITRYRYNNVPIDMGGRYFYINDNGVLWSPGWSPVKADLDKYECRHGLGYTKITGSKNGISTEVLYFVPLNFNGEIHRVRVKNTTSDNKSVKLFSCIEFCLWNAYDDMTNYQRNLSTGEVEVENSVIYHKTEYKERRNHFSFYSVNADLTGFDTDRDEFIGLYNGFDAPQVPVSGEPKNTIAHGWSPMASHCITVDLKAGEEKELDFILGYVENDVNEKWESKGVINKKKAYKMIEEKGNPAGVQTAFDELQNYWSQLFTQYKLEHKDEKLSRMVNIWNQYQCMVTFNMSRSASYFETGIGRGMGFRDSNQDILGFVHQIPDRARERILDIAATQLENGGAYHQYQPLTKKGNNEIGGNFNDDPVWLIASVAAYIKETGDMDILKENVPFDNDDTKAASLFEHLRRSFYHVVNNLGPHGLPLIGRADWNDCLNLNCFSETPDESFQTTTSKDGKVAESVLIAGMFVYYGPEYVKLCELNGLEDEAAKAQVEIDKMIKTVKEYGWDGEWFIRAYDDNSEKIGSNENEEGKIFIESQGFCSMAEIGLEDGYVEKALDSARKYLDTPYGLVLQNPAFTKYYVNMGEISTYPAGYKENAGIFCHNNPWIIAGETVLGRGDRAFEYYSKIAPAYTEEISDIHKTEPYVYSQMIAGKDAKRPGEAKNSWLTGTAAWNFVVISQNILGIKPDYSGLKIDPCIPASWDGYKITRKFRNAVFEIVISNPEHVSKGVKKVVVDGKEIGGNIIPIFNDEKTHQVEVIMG
Text: cellobiose phosphorolysis, HPAEC-PAD on Cellobiose phosphorylase CbpA

Galactokinase = biological target: T5, Galactokinase (Ruminiclostridium cellulolyticum, UniProt B8I0X2); experiment: galactose phosphorylation, HPLC-RI; type: biochemical; details: 5 mM GTP, 25 mM MgCl2, 25 mM HEPES pH 7.0, 37°C; read-out: Substrate(s) (fixed cosubstrate concn)^a
T5 construct: gene galK; C-terminal 6xHis tag (pET28a-3238), E. coli BL21(DE3)
T5 sequence (B8I0X2 1-397): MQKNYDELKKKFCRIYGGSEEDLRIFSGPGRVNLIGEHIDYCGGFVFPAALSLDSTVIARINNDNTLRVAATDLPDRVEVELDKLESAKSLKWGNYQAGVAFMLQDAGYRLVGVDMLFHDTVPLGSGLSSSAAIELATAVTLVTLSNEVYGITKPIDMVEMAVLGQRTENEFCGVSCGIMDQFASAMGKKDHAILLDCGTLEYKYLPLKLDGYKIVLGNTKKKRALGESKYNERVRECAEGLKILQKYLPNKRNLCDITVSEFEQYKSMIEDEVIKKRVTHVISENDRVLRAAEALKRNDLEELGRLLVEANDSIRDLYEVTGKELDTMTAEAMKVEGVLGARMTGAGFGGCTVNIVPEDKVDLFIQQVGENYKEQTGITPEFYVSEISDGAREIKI
Text: (§1) galactose phosphorylation, HPLC-RI on Galactokinase

isomerization, HPLC-RI = substrate: O=C(CO)[C@@H](O)[C@H](O)CO; experiment: isomerization, HPLC-RI; type: biochemical, Ruminiclostridium cellulolyticum; details: 10 mM MgCl2, 25 mM HEPES pH 7.0, 37°C
Text: isomerization, HPLC-RI on Xylose isomerase

isomerization, HPAEC-PAD = substrate: O=P(O)(O)O[C@H]1O[C@H](CO)[C@@H](O)[C@H](O)[C@H]1O; experiment: isomerization, HPAEC-PAD; type: biochemical, Ruminiclostridium cellulolyticum; details: 25 mM HEPES pH 7.0, 37°C
Text: isomerization, HPAEC-PAD on α-Phosphoglucomutase

purified protein [2] = substrate: Nc1nc2c(ncn2[C@@H]2O[C@H](COP(=O)(O)OP(=O)(O)OP(=O)(O)O)[C@@H](O)[C@H]2O)c(=O)[nH]1; experiment: purified protein; type: biochemical, Ruminiclostridium cellulolyticum; details: 5 mM glucose, 25 mM MgCl2, 25 mM HEPES pH 7.0, 37°C
Text: (§2) glucose phosphorylation, HPLC-RI on Hexokinase

purified protein [3] = substrate: Nc1ncnc2c1ncn2[C@@H]1O[C@H](COP(=O)(O)OP(=O)(O)OP(=O)(O)O)[C@@H](O)[C@H]1O; experiment: purified protein; type: biochemical, Ruminiclostridium cellulolyticum; details: 5 mM glucose, 25 mM MgCl2, 25 mM HEPES pH 7.0, 37°C, ATP tested only up to 20 mM (below Km)
Text: as §2

[4] = substrate: Nc1nc2c(ncn2[C@@H]2O[C@H](COP(=O)(O)OP(=O)(O)OP(=O)(O)O)[C@@H](O)[C@H]2O)c(=O)[nH]1; experiment: galactose phosphorylation, HPLC-RI; type: biochemical, Ruminiclostridium cellulolyticum; details: 100 mM galactose, 25 mM MgCl2, 25 mM HEPES pH 7.0, 37°C
Text: as §1

[5] = substrate: Nc1ncnc2c1ncn2[C@@H]1O[C@H](COP(=O)(O)OP(=O)(O)OP(=O)(O)O)[C@@H](O)[C@H]1O; experiment: galactose phosphorylation, HPLC-RI; type: biochemical, Ruminiclostridium cellulolyticum; details: 100 mM galactose, 25 mM MgCl2, 25 mM HEPES pH 7.0, 37°C
Text: as §1

T3 sequence (B8I9A6 entry or part of it): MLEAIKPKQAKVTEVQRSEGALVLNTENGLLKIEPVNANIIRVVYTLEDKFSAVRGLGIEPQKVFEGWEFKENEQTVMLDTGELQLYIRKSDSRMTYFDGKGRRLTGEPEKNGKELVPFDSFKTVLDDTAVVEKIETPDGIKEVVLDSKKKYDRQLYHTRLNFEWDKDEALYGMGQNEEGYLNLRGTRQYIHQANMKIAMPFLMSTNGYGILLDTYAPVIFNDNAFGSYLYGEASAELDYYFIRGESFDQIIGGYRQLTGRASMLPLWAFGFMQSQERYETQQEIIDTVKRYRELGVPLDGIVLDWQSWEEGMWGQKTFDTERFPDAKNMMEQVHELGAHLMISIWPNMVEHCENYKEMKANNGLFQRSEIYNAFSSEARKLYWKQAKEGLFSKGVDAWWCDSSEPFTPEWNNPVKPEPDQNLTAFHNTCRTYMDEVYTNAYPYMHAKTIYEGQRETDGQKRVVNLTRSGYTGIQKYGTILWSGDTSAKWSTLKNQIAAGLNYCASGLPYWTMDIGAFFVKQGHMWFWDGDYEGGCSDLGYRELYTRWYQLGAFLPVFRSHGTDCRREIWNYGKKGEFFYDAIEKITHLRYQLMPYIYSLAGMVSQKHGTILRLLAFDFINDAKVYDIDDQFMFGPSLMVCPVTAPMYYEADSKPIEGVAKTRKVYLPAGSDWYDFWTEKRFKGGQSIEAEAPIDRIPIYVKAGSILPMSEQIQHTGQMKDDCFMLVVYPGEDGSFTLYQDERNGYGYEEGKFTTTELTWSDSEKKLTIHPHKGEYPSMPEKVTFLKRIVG

- Ki (β-Glucosidase Glu3A): 36.3 ± 5.57 mM
- Ki (β-Galactosidase Gal42A; noncompetitive): 19.3 ± 1.41 mM
Molecule: OC[C@H]1O[C@@H](O[C@H]2[C@H](O)[C@@H](O)C(O)O[C@@H]2CO)[C@H](O)[C@@H](O)[C@@H]1O (stereo partly shown) [Cellobiose]

- Ki (α-Xylosidase Xyl31A): 1.83 ± 0.42 mM
- Ki (β-Glucosidase Glu3A): 3.99 ± 0.33 mM
- Ki [1]: 680 ± 40 µM
Molecule: OC[C@H]1OC(O)[C@H](O)[C@@H](O)[C@@H]1O (stereo partly shown) [Glucose]

Molecule: OC[C@H]1OC(O)[C@H](O)[C@@H](O)[C@H]1O (stereo partly shown) [Galactose]
- Km (Galactokinase): 15.5 ± 1.8 mM
- Ki (β-Galactosidase Gal42A; competitive): 2.35 ± 0.05 mM

B1: Xylose isomerase (Ruminiclostridium cellulolyticum H10) (protein)
chain: MSEVFSGISNIKFEGSGSDNPLAFKYYDPKAVIGGKTMEEHLRFAVAYWHTFAAPGADMFGAGSYVRPWNTMSDPLEIAKYKVEANFEFIEKLGAPFFAFHDRDIAPEGDTLAETNKNLDTIVSVIKDRMKSSPVKLLWGTTNAFGNPRFMHGASTSPNADIFAYAAAQVKKAMEITKELGGENYVFWGGREGYETLLNTDMKLELDNLARFLKMAVDYAKEIGFDGQFLIEPKPKEPTKHQYDFDTATVIGFLKTYGLDPYFKMNIEANHATLAGHTFQHELAMCRINDMLGSIDANQGDVMLGWDTDQFPTNLYDATLAMVEVLKAGGLKKGGLNFDSKVRRGSFEPSDLFYGHIAGMDTFAKGLIIANKIVEDGKFDAFVADRYSSYTNGIGKDIVEGKVGFKELEQYALTAKIQNKSGRQEMLEALLNQYILETK
notes: C-terminal 6xHis tag (plasmid printed as pET28a-3439), E. coli BL21(DE3)
- Km (isomerization, HPLC-RI): 2.0 ± 0.2 mM
- kcat (isomerization, HPLC-RI): 63.5 ± 1.8 IU μmol^−1

B2: α-Phosphoglucomutase (Ruminiclostridium cellulolyticum H10) (protein)
chain: MEYLSKLNFWLDNEYFDQDTKNELLSIKNNAKEVEDRFYKSLEFGTGGLRGIIGAGTNRINIYTVRVASQGLANYINQMGKQDKGIVIAYDPRFMSPEFSLEAAKVFCANGIKAYLFDELRPTPQLSFAVRYLKAAAGVVVTASHNPKQYNGYKVYGEDGGQLSIDGSNAVISEINKITDITKVNIISKEDAASKGLLQIIGSEIDDAYIEMLKKLRINKDAVSKVADTFKIVYTPLHGAGNKPVRRILAESGFKEVLVVKEQELPDSQFSTVKSPNPEERSAFELAIKLASDNNVDLIIGTDPDSDRVGVVVRKNDGEYAVLTGNQTGCLLLEYILTAMKEEGKLPANGFVVKTIVTTELARIIADFYNVELVEVLTGFKFIGEQIKLRDENGNQKYLFGFEESYGYLAGTDVRDKDAVVASMLVAEMAAYYKVKGISLYDALTNLYEKYGYFVEGISSFTLEGKDGVMKIKEALTTMRKTKYESFGGIKVKAIRDYQKSERHVIASGATEKITLPESDVLYFEMEDGSWFCVRPSGTEPKIKIYYGVSDRTLNLSQDKLEKFKAGVLDVIKPLL
notes: C-terminal 6xHis tag (pET28a-1417), E. coli BL21(DE3)
- Km (isomerization, HPAEC-PAD): 0.155 ± 0.055 mM
- kcat (isomerization, HPAEC-PAD): 1,768 ± 19 IU μmol^−1

B3: Hexokinase (Ruminiclostridium cellulolyticum H10) (protein)
chain: MGSKLEIVQDVINAFEVNKESMLRTAMLFKETMEKSLNGEKTCLKMLPSYIGKPTGKEQGTFMTIDMGGTNFRCTKYKINNGNFEKVGEIKQKLINKEKNYDLTKSDSDEKQLFGFMAECIGELLEPEESLYLGNTFSFPCRQEGINDAYLIQWTKEITTSGVVGQNINKLLEQSLKEKNINVKPVAILNDTVGTLLVAMYSYQTADIGSIMGTGHNTCYLENNHPLNGQKMIVNIESGNYNVGLPVTKYDEIIDKNSQIPGAQLLEKMVSGYYMGSLLKEVCKDLYKNNALFTNEDVDIDAFFNQNFNALMVENFILYPSNTKEQYKCSIEDAEIVKRVSEAILKRTVRLVAVSHMGILFHQENSGTSVNNEHVIAIDGTIYEKMPNAPQLMKEAFREALGDDASNIEIRLVKDGSGLGAAIAAAFAVTQ
notes: C-terminal 6xHis tag (pET28a-3221), E. coli BL21(DE3)
- Km (purified protein [2]): 0.40 ± 0.07 mM
- kcat (purified protein [2]): 11,160 ± 543 IU μmol^−1
- Km (purified protein [3]): 32.2 ± 7.4 mM
- kcat (purified protein [3]): 8,781 ± 1,418 IU μmol^−1

B4: Galactokinase (Ruminiclostridium cellulolyticum H10) (protein)
chain: MQKNYDELKKKFCRIYGGSEEDLRIFSGPGRVNLIGEHIDYCGGFVFPAALSLDSTVIARINNDNTLRVAATDLPDRVEVELDKLESAKSLKWGNYQAGVAFMLQDAGYRLVGVDMLFHDTVPLGSGLSSSAAIELATAVTLVTLSNEVYGITKPIDMVEMAVLGQRTENEFCGVSCGIMDQFASAMGKKDHAILLDCGTLEYKYLPLKLDGYKIVLGNTKKKRALGESKYNERVRECAEGLKILQKYLPNKRNLCDITVSEFEQYKSMIEDEVIKKRVTHVISENDRVLRAAEALKRNDLEELGRLLVEANDSIRDLYEVTGKELDTMTAEAMKVEGVLGARMTGAGFGGCTVNIVPEDKVDLFIQQVGENYKEQTGITPEFYVSEISDGAREIKI
notes: C-terminal 6xHis tag (pET28a-3238), E. coli BL21(DE3)
- Km [4]: 0.99 ± 0.13 mM
- kcat [4]: 1,704 ± 75 IU μmol^−1
- Km [5]: 13.71 ± 2.42 mM
- kcat [5]: 4,853 ± 419 IU μmol^−1
